Reference: article PMC5376645, “Long-acting protein drugs for the treatment of ocular diseases” (Nature Communications, 2017)

Columns and labels:
[1] = target: T1, human VEGF-A165 (VEGF homodimer with each monomer having 165 amino acid residues) (Homo sapiens, UniProt P15692-4, strain, biotin (site not stated; named for Supplementary Table 2 only)); assay: inhibition of binding of hVEGF-A165 to hVEGFR2-Fc (luminescence read-out); antibody titrated (pM); binding signal in relative luminescence units; triplicates; settings: both partners purified
T1 construct: also called hVEGF-A165; hVEGF; source: bought: Peprotech (catalogue number AF-100-20)

[2] = target: T1, human VEGF-A165 (VEGF homodimer with …); assay: SPR; Biacore as per the manufacturer's protocol; kinetic rate constants and affinity of the Fab constructs for biotinylated hVEGF-A165; settings: both partners purified

T1 sequence (P15692 whole entry, looked up, change not shown): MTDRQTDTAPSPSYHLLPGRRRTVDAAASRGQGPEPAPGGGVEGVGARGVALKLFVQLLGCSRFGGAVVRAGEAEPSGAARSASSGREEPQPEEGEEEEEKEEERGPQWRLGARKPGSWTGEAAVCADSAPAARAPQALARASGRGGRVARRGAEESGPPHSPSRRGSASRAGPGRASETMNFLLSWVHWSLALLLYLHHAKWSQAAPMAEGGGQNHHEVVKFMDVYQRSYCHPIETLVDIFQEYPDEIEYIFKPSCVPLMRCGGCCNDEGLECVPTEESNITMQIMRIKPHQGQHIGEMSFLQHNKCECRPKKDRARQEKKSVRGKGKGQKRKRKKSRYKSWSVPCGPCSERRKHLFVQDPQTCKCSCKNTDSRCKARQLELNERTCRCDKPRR

B1: NVS0, the Fab version of brolucizumab (Fab, V domains shown)
VH: EVQLVESGGGLVQPGGSLRLSCTASGFSLTDYYYMTWVRQAPGKGLEWVGFIDPDDDPYYATWAKGRFTISRDNSKNTLYLQMNSLRAEDTAVYYCAGGDHNSGWGLDIWGQGTLVTVSS
VL: EIVMTQSPSTLSASVGDRVIITCQASEIIHSWLAWYQQKPGKAPKLLIYLASTLASGVPSRFSGSGSGAEFTLTISSLQPDDFATYYCQNVYLASTNGANFGQGTKLTVL
notes: as the Fab part of the heavy chain of Dm4 (LAVA1), without the GSGGG linker and the LINK domain; as the light chain of Dm4 (LAVA1); Made by converting the anti-VEGF scFv brolucizumab to a Fab format; also called untagged anti-VEGF Fab
B1 was tested, and the IC50 [1] was 0.263 nM, the Kd [2] was 0.0142 nM and the koff [2] was 7.87e-05 s⁻¹. It also gave a kon [2] of 5.51e+06 M⁻¹ s⁻¹.

B2: LAVA25, non-glycosylated variant of LAVA1 (Fab, V domains shown)
VH: B1 VH
VL: B1 VL
notes: as the Fab part of the heavy chain of Dm4 (LAVA1); linker; TSG6, human, LINK domain (HABP), the N-linked glycosylation site deleted by substitution of the asparagine residue; as the light chain of Dm4 (LAVA1); The substitution is in Supplementary Data 2
Work on B2 yielded a Kd [2] of 0.0115 nM, a koff [2] of 0.000213 s⁻¹ and a kon [2] of 1.86e+07 M⁻¹ s⁻¹.

B3: LAVA46, variant of LAVA1 with an additional disulfide bond in the LINK domain (Fab, V domains shown)
VH: B1 VH
VL: B1 VL
notes: as the Fab part of the heavy chain of Dm4 (LAVA1); linker; TSG6, human, LINK domain (HABP), with cysteine residues introduced for an additional disulfide bond and substitutions at and around the observed digestion sites; as the light chain of Dm4 (LAVA1); The substitutions are in Supplementary Data 2
B3 was tested, and the Kd [2] was 0.00413 nM, the koff [2] was 0.000257 s⁻¹ and the kon [2] was 6.23e+07 M⁻¹ s⁻¹.

B4: LAVA45, variant of LAVA1 with an additional disulfide bond in the LINK domain (Fab, V domains shown)
VH: B1 VH
VL: B1 VL
notes: as for B3
Work on B4 yielded a Kd [2] of 0.00307 nM, a koff [2] of 7.21e-05 s⁻¹ and a kon [2] of 2.35e+07 M⁻¹ s⁻¹.

B5: LAVA2, protease-resistant variant of LAVA1 (Fab, V domains shown)
VH: B1 VH
VL: B1 VL
notes: as the Fab part of the heavy chain of Dm4 (LAVA1); linker; TSG6, human, LINK domain (HABP), with amino acid substitutions around the observed proteolytic sites; as the light chain of Dm4 (LAVA1); The substitutions are in Supplementary Data 2
Work on B5 yielded an IC50 [1] of 0.207 nM, a Kd [2] of 0.00453 nM and a koff [2] of 0.000185 s⁻¹. For the same binder, the kon [2] was 4.1e+07 M⁻¹ s⁻¹.

B6: brolucizumab, an anti-VEGF scFv (scFv, V domains shown)
VH: B1 VH
VL: B1 VL
notes: NVS0 is the Fab version of this scFv
B6 showed an IC50 [1] of 0.248 nM.

B7: LAVA1 (NVS24): NVS0 Fab with the LINK domain of human TSG6 fused to the C terminus of the heavy chain (Fab, V domains shown)
VH: B1 VH
VL: B1 VL
notes: Fab heavy chain of NVS0 (from brolucizumab); linker; TSG6 (TNF-stimulated gene 6 protein), human, LINK domain; Fab light chain of NVS0 (from brolucizumab); The LINK domain has a natural N-linked glycosylation site
B7 gave an IC50 [1] of 0.28 nM, a Kd [2] of 0.000176 nM and a koff [2] of 1.01e-05 s⁻¹. It also gave a kon [2] of 5.75e+07 M⁻¹ s⁻¹.

B8: LAVA3, protease-resistant variant of LAVA1 (Fab, V domains shown)
VH: B1 VH
VL: B1 VL
notes: as for B5
In the case of B8, the IC50 [1] is reported as 0.301 nM, the Kd [2] is reported as 0.000161 nM and the koff [2] is reported as 1.19e-05 s⁻¹. For the same binder, the kon [2] was 7.39e+07 M⁻¹ s⁻¹.

B9: LAVA24, non-glycosylated variant of LAVA1 (Fab, V domains shown)
VH: B1 VH
VL: B1 VL
notes: as for B2
B9 gave a Kd [2] of 0.00882 nM, a koff [2] of 0.000198 s⁻¹ and a kon [2] of 2.25e+07 M⁻¹ s⁻¹.
